{"source": "paper PMC12646664", "molecular_target": "Gα-interacting vesicle-associated protein (GIV), endogenous (human (endogenous in THP1)) (UniProt Q3V6T2)", "sequence (Q3V6T2 whole entry)": "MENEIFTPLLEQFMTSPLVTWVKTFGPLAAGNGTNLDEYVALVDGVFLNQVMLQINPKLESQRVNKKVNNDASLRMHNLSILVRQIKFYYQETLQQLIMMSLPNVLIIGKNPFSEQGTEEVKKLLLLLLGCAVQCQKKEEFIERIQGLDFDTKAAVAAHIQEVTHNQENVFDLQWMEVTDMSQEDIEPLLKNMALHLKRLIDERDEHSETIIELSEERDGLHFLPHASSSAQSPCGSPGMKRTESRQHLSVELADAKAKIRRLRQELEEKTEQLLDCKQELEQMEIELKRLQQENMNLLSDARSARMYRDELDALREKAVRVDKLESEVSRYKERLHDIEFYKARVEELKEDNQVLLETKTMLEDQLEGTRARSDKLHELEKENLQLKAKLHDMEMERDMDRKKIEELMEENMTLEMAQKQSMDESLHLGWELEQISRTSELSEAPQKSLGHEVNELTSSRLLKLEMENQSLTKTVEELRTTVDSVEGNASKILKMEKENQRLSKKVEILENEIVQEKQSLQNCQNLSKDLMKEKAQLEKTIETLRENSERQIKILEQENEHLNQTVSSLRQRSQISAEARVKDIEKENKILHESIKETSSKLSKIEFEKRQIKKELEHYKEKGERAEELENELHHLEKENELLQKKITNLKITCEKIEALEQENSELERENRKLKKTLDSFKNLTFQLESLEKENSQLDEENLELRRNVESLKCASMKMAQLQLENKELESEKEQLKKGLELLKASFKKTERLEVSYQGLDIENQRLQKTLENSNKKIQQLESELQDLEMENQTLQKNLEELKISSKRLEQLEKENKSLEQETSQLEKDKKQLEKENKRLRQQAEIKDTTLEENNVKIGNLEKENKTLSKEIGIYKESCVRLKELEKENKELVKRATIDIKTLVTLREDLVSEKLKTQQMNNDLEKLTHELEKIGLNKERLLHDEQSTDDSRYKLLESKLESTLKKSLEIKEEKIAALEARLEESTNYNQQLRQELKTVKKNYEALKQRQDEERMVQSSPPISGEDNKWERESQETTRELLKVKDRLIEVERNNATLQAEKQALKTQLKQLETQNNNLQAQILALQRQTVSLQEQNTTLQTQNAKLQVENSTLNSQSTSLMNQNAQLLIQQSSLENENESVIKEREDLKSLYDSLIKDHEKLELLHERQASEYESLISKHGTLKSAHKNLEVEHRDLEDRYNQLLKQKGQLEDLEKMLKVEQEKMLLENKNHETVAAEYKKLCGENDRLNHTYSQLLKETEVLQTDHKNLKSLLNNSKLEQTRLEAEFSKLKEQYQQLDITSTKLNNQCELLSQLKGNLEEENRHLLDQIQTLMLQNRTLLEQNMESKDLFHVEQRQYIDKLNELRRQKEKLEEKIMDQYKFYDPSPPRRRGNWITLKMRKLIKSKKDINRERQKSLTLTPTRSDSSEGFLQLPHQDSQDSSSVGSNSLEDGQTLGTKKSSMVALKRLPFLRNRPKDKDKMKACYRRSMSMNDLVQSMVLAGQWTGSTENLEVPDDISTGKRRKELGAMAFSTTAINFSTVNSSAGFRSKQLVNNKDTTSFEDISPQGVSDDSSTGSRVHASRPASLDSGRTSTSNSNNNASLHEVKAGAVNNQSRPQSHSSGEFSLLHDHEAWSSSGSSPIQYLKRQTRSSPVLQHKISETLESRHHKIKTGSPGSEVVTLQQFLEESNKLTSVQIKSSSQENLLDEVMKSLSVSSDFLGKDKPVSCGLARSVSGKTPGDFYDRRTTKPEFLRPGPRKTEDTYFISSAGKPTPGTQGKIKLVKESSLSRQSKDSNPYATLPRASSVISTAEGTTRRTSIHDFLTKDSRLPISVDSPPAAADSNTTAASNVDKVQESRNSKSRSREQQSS", "data": [{"substance": "HA-NOD2 R702W (from UniProt Q9HC29 1-1040) (natural protein)", "values": [{"measurement": "suppression by MDP pretreatment (10 μg/mL) of LPS (100 ng/mL)-induced NF-κB activation, luciferase reporter assay in HeLa cells with NOD2 R702W", "value": 45, "unit": "% protection"}]}, {"substance": "HA-NOD2 G908R (from UniProt Q9HC29 1-1040) (natural protein)", "values": [{"measurement": "suppression by MDP pretreatment (10 μg/mL) of LPS (100 ng/mL)-induced NF-κB activation, luciferase reporter assay in HeLa cells with NOD2 G908R", "value": 7, "unit": "% protection"}]}, {"substance": "HA-NOD2 (wild type) (from UniProt Q9HC29 1-1040) (natural protein)", "values": [{"measurement": "suppression by MDP pretreatment (10 μg/mL) of LPS (100 ng/mL)-induced NF-κB activation, luciferase reporter assay in HeLa cells with NOD2-WT", "value": 65, "unit": "% protection"}]}, {"substance": "HA-NOD2 1007fs (from UniProt Q9HC29 1-1040) (natural protein)", "values": [{"measurement": "suppression by MDP pretreatment (10 μg/mL) of LPS (100 ng/mL)-induced NF-κB activation, luciferase reporter assay in HeLa cells with NOD2-1007fs", "value": 20, "unit": "% protection"}]}]}
